Test results: US6683057

Target: Gβγ (βγ subunit of the heterotrimeric G protein) (rabbit)
Test: cell-based or functional assay

EGF activation of MAP kinase in cultured vascular smooth muscle cells (versus empty virus treated cells): -7%
LPA activation of MAP kinase in cultured vascular smooth muscle cells (versus empty virus treated cells): -58%
basal MAP kinase activity in cultured vascular smooth muscle cells (versus empty virus treated cells): 18%
serum activation of MAP kinase in cultured vascular smooth muscle cells (versus empty virus treated cells): -38%
Substance: βARKCT (βARK-1-(495-689) polypeptide; Met-Gly495-Leu689 of bovine β-adrenergic receptor kinase-1) (from UniProt P21146 495-689)
